Data on two molecules can be found in patent US20170096474A1 (published 2017).

For experiment [1], the target named is T1, BoNT/B binding domain (HC), yeast displayed (Clostridium botulinum, UniProt P10844 858-1291).
T1 sequence: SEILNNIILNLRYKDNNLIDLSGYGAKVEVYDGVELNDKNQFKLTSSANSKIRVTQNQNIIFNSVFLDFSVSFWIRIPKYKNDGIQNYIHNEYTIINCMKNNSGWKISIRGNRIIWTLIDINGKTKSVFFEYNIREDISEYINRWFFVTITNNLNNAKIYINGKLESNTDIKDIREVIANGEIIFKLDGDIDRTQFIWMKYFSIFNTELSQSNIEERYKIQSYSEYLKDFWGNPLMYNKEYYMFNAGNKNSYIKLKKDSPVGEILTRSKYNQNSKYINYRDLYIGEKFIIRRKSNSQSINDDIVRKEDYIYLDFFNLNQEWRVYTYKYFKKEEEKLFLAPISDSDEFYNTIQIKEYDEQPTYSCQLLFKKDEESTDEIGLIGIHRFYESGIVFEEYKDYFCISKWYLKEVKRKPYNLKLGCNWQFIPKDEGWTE
As to the kind of experiment: soluble scFv or IgG on yeast-displayed BoNT/B domains.

Experiment [2] addresses T2, BoNT/B translocation domain (HN), yeast displayed (Clostridium botulinum, UniProt P10844 442-857).
T2 sequence: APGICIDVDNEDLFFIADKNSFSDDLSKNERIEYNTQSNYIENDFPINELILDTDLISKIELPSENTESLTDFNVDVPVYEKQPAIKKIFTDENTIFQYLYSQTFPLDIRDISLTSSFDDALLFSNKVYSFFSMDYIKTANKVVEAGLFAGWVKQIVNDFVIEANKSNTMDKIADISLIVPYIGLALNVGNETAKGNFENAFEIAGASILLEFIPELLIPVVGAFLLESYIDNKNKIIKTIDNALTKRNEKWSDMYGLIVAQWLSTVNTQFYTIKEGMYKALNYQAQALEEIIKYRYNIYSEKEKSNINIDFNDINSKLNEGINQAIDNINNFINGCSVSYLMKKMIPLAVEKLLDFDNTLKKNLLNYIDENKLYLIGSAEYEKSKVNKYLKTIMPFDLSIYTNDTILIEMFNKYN
As to the kind of experiment: IgG/Fab on yeast-displayed toxin domain, flow cytometry. (In general: Flow cytometry measures light scatter and fluorescence of single cells or particles in a stream.)

In experiment [3] the target is T1, BoNT/B binding domain (HC), yeast …. Briefly: flow cytometry, mAb staining of yeast-displayed BoNT/B domains.
For experiment [4], the target named is T3, BoNT/B light chain (LC), yeast displayed (Clostridium botulinum, UniProt P10844 1-441).
T3 sequence: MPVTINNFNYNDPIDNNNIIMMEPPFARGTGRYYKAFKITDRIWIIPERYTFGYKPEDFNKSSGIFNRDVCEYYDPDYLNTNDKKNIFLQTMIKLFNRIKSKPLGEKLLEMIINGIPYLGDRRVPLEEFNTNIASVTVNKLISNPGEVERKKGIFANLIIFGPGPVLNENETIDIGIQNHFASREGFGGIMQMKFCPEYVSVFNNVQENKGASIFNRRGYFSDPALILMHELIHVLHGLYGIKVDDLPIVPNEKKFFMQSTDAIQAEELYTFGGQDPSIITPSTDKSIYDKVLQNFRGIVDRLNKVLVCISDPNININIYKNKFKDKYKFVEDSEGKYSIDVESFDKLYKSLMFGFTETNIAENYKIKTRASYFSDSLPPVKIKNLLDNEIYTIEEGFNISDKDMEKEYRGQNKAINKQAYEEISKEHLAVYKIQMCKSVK
The experiment is described as above.

B1: 2B30 scFv (scFv)
scFv: EVQLVESGGGVVQPGRSLRLSCAASGFTFRRNAIHWVRQAPGKGLEWVAVISYDGVNKYYAASVKGRFAISRDNAKNTLFLQMNSLRPEDSAIYYCARDVSEYGDYVGHFDYWGQGTLVTVSSGGGGSGGGGSGGGGSSYELMQLPSASGTPGQRVSISCSGSSSNIGSNPVNWYQQLPGTAPKLLIYSNNHRPSGVPDRFSGSKSGTSASLAISGLQSEDEADYYCAAWDGSLNGHVVFGGGTKLTVL
Consider B1, for which, in experiment [1], the binding result is recorded as “binds”.

B2: 1B18 IgG (antibody, V domains shown)
VH: EVQLVQSGGGLVQPGGSRRLSCAASGFYFNAYWMTWVRQAPGKGLEWVANINLDGTEIYYLDSVKGRFTVSRDNVKNSVFLQMSSLRVEDTAVYFCARLEWGGRNGWVSPWGQGTLVTVSS
VL: DVVMTQSPSSVSASVGDRVTITCRASQSISSYLNWYQQRPGKAPKLLIFAASSLQSAVPSRFSGSGSGTDFTLTISSLQPEDFATYYCQQSYSTPPTFGQGTKVEIKR
In the case of B2, the results for the binding result in experiment [2], in experiment [3] and in experiment [4] were “binds”, “no binding” and “no binding”, respectively.
